B1: CPEB3 Ribozyme (parent)
chain: GGGGGCCACAGCAGAAGCGUUCACGUCGCGGCCCCUGUCAGAUUCUGGUGAAUCUGCGAAUUCUGCUGU

Variants of: B1
Assay: self-cleavage, relative activity (ratio to wild type); higher = more cleavage; co-transcriptional

Variant	self-cleavage
U21A U36A	0.253
U20C G30C	0.178
U20C G30U	0.153
U20C U46G	0.275
U20C U46C	0.257
U20C U46A	0.262
U20G U26C	0.114
U21C A40U	0.642
U21C A40C	0.372
U21C A40G	0.719
U20G U38A	0.288
U20G U38C	0.185
U21A A51U	0.952
U21A A51G	1.01
U21A A51C	0.953
U21A U67A	0.992
U21A U67C	0.951
U20C C66U	0.272
U20C C66A	0.204
U20G A60G	0.0625
U20G A60U	0.073
U20G A60C	0.191
U20G G37A	0.173
U20G G37C	0.151

Variant	self-cleavage
U21A A23U	0.962
U21A A23C	0.969
U21A A23G	0.943
U20G U53A	0.127
U20G U53G	0.166
U20G U53C	0.222
U20G U67G	0.152
U20G G28A	0.186
U20G G28C	0.145
U21C C24U	0.429
U21C C24G	0.223
U21A C63U	0.921
U21A C63A	0.795
U21A C63G	0.727
U21A A40C	0.651
U21A A40G	0.97
U21A A40U	0.896
U21A A59C	0.681
U21A A59G	1
U21C C33U	0.919
U20C U64A	0.167
U20C U64G	0.104
U20C U64C	0.278
U20C U55A	0.175

Variant	self-cleavage
U20C C22U	0.229
U21A U64A	0.91
U21A U64C	0.874
U21A G25U	0.136
U21A G25A	0.244
U21A G25C	0.249
U20C G56A	0.223
U20C U49A	0.137
U20C U49C	0.214
U20C U49G	0.231
U20G G41C	0.0984
U20G G41A	0.127
U20G G41U	0.194
U20G U61C	0.19
U20G U61G	0.171
U20G U62A	0.183
U20G U62G	0.292
U21C C34U	0.898
U21C C34A	0.303
U21C C34G	0.328
U20G G65U	0.262
U20G G65A	0.155
U21A G50A	0.989
U21A G50C	0.924

Variant	self-cleavage
U20G U36A	0.13
U20G U36C	0.0978
U21A U53G	0.863
U21A U53A	0.936
U21A U53C	0.927
U20G A52C	0.148
U20G A52G	0.292
U20G A52U	0.183
U21A U26C	0.985
U21A U26G	0.869
U21A U26A	0.796
U21C A60G	0.663
U21C A60U	0.391
U20G A59U	0.176
U20G A59G	0.204
U21A	0.979
U21C	0.92
U20C G68A	0.336
U20G C45A	0.221
U20G C45U	0.202
U20G C45G	0.11
U20C G50U	0.245
U20G A23G	0.32
U20G A23U	0.243

Variant	self-cleavage
U20G A23C	0.196
U21C A52C	0.854
U20G G48A	0.127
U20G G48U	0.141
U20C G37A	0.102
U20C G37U	0.114
U21A C24A	0.541
U21A C24G	0.214
U21A C45U	0.967
U21A C45A	1.01
U21A C45G	0.956
U21A A60G	0.879
U21A A60U	0.586
U21A A60C	0.29
U21C C29G	0.247
U21C C29U	0.217
U21A G47C	0.988
U21A G47A	0.969
U21A G47U	0.992
U21A G41U	0.824
U21A G41A	0.855
U21A G41C	0.694
U20C C35U	0.145
U20C C35A	0.169

Variant	self-cleavage
U20C C35G	0.129
U21C A42U	0.891
U21C A42G	0.749
U21A G28C	0.193
U21A G28A	0.219
U20G A51G	0.193
U21C A59G	0.928
U21C A59U	0.581
U20G C39U	0.0993
U20G C39G	0.23
U20G C39A	0.169
U20C G48U	0.242
U20C G48A	0.189
U21A U69G	1.06
U21A U69C	1.06
U21A U69A	1.01
U21A G58A	0.898
U20G G31C	0.134
U20G G31A	0.155
U20C C29A	0.227
U20C C29U	0.128
U20C G31C	0.148
U20C G31U	0.204
U20C G31A	0.261

Variant	self-cleavage
U20C C32A	0.192
U21C A51U	0.861
U21C A51C	0.913
U21A U55C	0.874
U20C G41A	0.247
U20C G41C	0.139
U20C G41U	0.137
U20G G50A	0.206
U20G G50C	0.246
U20C C34G	0.139
U20C C34A	0.176
U20C C34U	0.13
U20G C22A	0.249
U20G C22G	0.192
U21A G48A	1
U21A G48U	0.978
U20G C63U	0.246
U20G C63G	0.21
U20G U43A	0.0656
U20G U43C	0.182
U21A C22A	0.132
U21A C22G	0.0886
U20C U43C	0.212
